Assay results: US20140037642A1 (Amgen, published 2014)
Where a chain is given by its changes, count along the chain named.

B1: L51H51 phage-displayed Fab (Fab, V domains shown)
VH: QVQLVQSGAEVKKPGSSVKVSCKASGGTFSSYAISWVRQAPGQGLEWMGIINPSGGSTSYAQKFQGRVTITRDTSASTAYMELSSLRSEDTAVYYCARDRWRYDAFDIWGQGTMVTVSS
VL: NFMLTQPHSVSESPGKTVTISCTGSGGNIASNYVQWYQQRPGRAPTTVIYEDNRRPSGVPDRFSGSIDSSSNSASLTISGLKTEDEADYYCQSYDPYNRVFGGGTKLTVL
B2: L52H52 phage-displayed Fab (Fab, V domains shown)
VH: EVQLVESGPGLVKPSGTLSLTCAVSGGSISSSNWWSWVRQPPGKGLEWIGEIYHSGSTNYNPSLKSRVTISVDKSKNQFSLKLSSVTAADTAVYYCAREKSGMDVWGQGTTVTVSS
VL: EIVMTQSPLSLPVTPGEPASISCRSSQSLLHTNGYDYLDWYLQKPGQSPQLLIYLGSTRASGVPDRFSGSGSGTDFTLKISRVEAEDVGVYYCMQAFQTPLTFGGGTKMEIK
B3: L4H4 phage-displayed Fab (Fab, V domains shown)
VH: QVQLQQWGAGLLKPSETLSLTCAVSGGSFSGYYWSWIRQPPGKGLEWIGEINHSGSTNYNRSLKSRVTISVDTSKNQFSLKLSSVTAADTAVYYCARLSYGSGVDYWGQGTLVTVSS
VL: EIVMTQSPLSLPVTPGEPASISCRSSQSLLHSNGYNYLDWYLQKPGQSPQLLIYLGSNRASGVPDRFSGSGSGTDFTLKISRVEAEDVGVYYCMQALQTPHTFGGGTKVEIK
B4: L5H5 phage-displayed Fab (Fab, V domains shown)
VH: QLQLQESGPGLVKPSQTLSLTCTVSGGSISSSNWWSWVRQPPGKGLEWIGEIYHSGSTNYNPSLKSRVTISVDKSKNQFSLKLSSVTAADTAVYYCARYSSSRNDAFDIWGQGTMVTVSS
VL: not shown
B5: L8H8 phage-displayed Fab (Fab, V domains shown)
VH: QVQLQQWGPGLVKPSGTLSLTCAVSGGSISSSNWWSWVRQPPGKGLEWIGEIYHSGSTNYNPSLESRVTISVDKSKNQFSLKLSSVTAADTAVYYCARDRYYGMDVWGQGTTVTVSS
VL: not shown
B6: L9H9 phage-displayed Fab (Fab, V domains shown)
VH: EVQLVESGPGLVKPSGTLSLTCAVSGGSISSSNWWSWVRQPPGKGLEWIGYIYYSGSTYYNPSLKSRVTMSVDTSKNQFSLKLSSVTAADTAVYYCARWSYLDAFDIWGQGTMVTVSS
VL: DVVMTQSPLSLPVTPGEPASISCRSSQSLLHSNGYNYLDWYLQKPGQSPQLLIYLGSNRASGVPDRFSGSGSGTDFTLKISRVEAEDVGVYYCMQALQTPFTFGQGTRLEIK
B7: L11H11 phage-displayed Fab (Fab, V domains shown)
VH: QLQLQESGPGLVKPSGTLSLTCAVSGGSISSSNWWSWVRQPPGKGLEWIGEIYHSGSTNYNPSLKSRVTISVDKSKNQSSLKLSSVTAADTAVYYCARANRDDAFDIWGQGTMVTVSS
VL: EIVLTQSPLSLPVTPGEPASISCRSSQSLLHSNGYNYLNWYLQKPGQSPQLLIYLGSNRASGVPDRFSASGSGTDFTLKISRVEAEDVGVYYCMQALQTPITFGQGTRLEIK
B8: L12H12 phage-displayed Fab (Fab, V domains shown)
VH: EVQLVESGGGLVQPGGSLRLSCAASGFTFSSYAMSWVRQAPGKGLEWVSAISGSGGSTYYADSVKGRFTISRDNSKNTLYLQMNSLSADDTAVYFCASGGWYGDYFDYWGQGTLVTVSS
VL: NFMLTQPHSVSESPGKTVTISCTRSSGSIASNYVQWYQQRPGSSPTTVIYEDNQRPSGVPDRFSGSIDSSSNSASLTISGLKTEDEADYYCQSYDSSNQRVFGGGTKLTVL
B9: L13H13 phage-displayed Fab (Fab, V domains shown)
VH: QVQLQESGPGLVKPSETLSLTCTVSGGSISSSNWWSWVRQPPGKGLEWIGEIYHSGSTNYNPSLKSRVTISVDKSKNQFSLKLSSVTAADTAVYYCAREGNRTVTSAFDIWGQGTMVTVSS
VL: not shown
B10: L16H16 phage-displayed Fab (Fab, V domains shown)
VH: QVQLQESGPGLVKPSGTLSLTCAVSGGSISSSNWWSWVRQPPGKGLEWIGEIYHSGSTNYNPSLKSRVTISVDKSKNQFSLKLSSVTAADTAVYYCARWTGRTDAFDIWGQGTMVTVSS
VL: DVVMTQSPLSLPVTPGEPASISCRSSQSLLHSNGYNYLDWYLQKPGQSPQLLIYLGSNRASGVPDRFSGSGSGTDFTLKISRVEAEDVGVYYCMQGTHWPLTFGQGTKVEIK
B11: L26H26 phage-displayed Fab (Fab, V domains shown)
VH: B10 VH with W99Y, T100S, G101Y, R102G, D104V, A105G, F106I, I108Y, M114L
VL: B2 VL with E1D, I2V, T32S, D36T, T58N, A85P, F97L, Q98E, T99M, M109V

These binders were tested against T1, hu INSR(ECD)-muIgG1Fc (human; mouse, Glycosylated. 87% of the preparation was cleaved between the alpha and beta chains (RKRR site), which stay disulfide-linked. Dimer through the receptor and the murine Fc.) (assay: phage Fab ELISA, plate coated with INSR-mFc at 5 µg/ml).
T1 construct: 87% processed into α and β chains; also called INSR(ECD)-muFc; INSR-mFc
Procedure: (§1) In 96-well 2-ml deep-well blocks, 480 μl/well 2xYT-CG broth was inoculated with 20 μl of overnight cultures of the individual clones, then incubated at 37° C., 300 rpm for 3 hours. To each well, 50 μl of 1:3 diluted M13KO7 helper phage were added to infect the cells. The block was incubated at 37° C. without shaking for 30 minutes, and then shaken gently for another 30 minutes at 150 rpm. The block was centrifuged at 3600 rpm for 20 minutes to pellet the infected cells. The cell pellet in each well was suspended into 480 μl of 2xYT-CK (2xYT broth containing 100 μg/ml carbenicillin and 40 μg/ml kanamycin), and incubated at 30° C. overnight for about 20 hours. The cell debris was separated by centrifugation at 3600 rpm for 20 minutes. The rescued phage supernatant was used in the phage ELISA to check for IGF-1R-specific, INSR-cross reactive, or mouse Fc binding of individual clones.
(§2) The coated plates were washed 3× with 300 μl/well of PBS. The washed plates were blocked with 300 μl/well 2% MPBS at room temperature for one hour. Meanwhile, rescued phages of individual clones were pre-blocked by mixing 170 μl of rescued phage with 170 μl of 4% MPBS. The blocked plates were washed 5× with 300 μl/well TBST (TBS: 10 mM Tris-HCl, pH 7.5, 1 mM EDTA, 150 mM NaCl; Tween-20. 0.1%). 100 μl/well of pre-blocked phage dilutions were distributed to each set of coated plate, which were incubated at room temperature on a rocker for 90 minutes. The plates were washed 5× with 300 μl/well TBST. 100 μl/well of anti-M13-HRP in 2% MPBS (1:3000 dilution, catalog number 27-9421-01, Amersham Pharmacia Biotech) were distributed, and plates were incubated at room temperature on rocker for one hour. The plates were washed 5× with 300 μl/well TBST. 100 μl/well of the substrate 1-Step™ ABTS (Pierce Biotechnology, Rockford, Ill., catalog number 37615) were added. Plates were incubated for one hour. OD₄₀₅ was measured for signal detection.

Binder	binding result
B1	no binding
B2	no binding
B3	no binding
B4	no binding
B5	no binding
B6	no binding
B7	no binding
B8	no binding
B9	no binding
B10	no binding
B11	no binding

The binders below were run against T2, hu IGF-1R(ECD)-C3-muIgG1Fc (human; mouse, Glycosylated. 60% of the preparation was cleaved between the alpha and beta chains (RKRR, mature positions 708-711), which stay disulfide-linked; 40% was unprocessed. Dimer through the …) (assay: phage Fab ELISA, plate coated with IGF-1R-C3-mFc at 5 µg/ml).
T2 construct: 60% of the product was processed into α and β chains, 40% unprocessed; also called IGF-1R(ECD)-C3-muFc; IGF-1R-C3-muFc
Procedure: as §1, §2

Binder	binding result
B1	binds
B2	binds
B3	binds
B4	binds
B5	binds
B6	binds
B7	binds
B8	binds
B9	binds
B10	binds
B11	binds
